Assay results from patent US12616740B2, “Methods of using a GIP/GLP1 co-agonist for therapy” (ELI LILLY AND COMPANY, priority 2018, dated 2026).

Assay: NCT03131687: nausea, vomiting and diarrhea, new events per interval
Type: in vivo, human
Description: Clinical Study (NCT03131687) Supporting Maintenance Dose Embodiments A 6-month (26-week) Phase 2 double-blind clinical study is designed to evaluate the safety, efficacy, and PK/PD of 4 dose levels (1 mg, 5 mg, 10 mg and 15 mg respectively) of tirzepatide once weekly by subcutaneous injection compared with dulaglutide 1.5 mg. once weekly (QW) and placebo QW in patients with T2DM who have inadequate glycemic control with diet and exercise with or without a stable dose of metformin. Tirzepatide dose is up-titrated to the maintenance dose using the following weekly dose increments:
The study also has a 4-week follow up period. In addition to safety and efficacy for treating T2DM, efficacy endpoints include the effect of tirzepatide on HbA1c, FBG, body weight, lipids, and waist circumference compared with placebo and with dulaglutide 1.5 mg. The study also evaluates the effect of tirzepatide on GI tolerability, hypoglycemia, hypersensitivity reactions, and pancreatic safety, as well as the development of treatment-emergent anti-drug antibodies. Model-based dose response analyses are performed to predict potential for significant HbA1c lowering and weight loss in longer studies. Statistical Analyses: Efficacy: The primary efficacy outcome of HbA1c change from baseline to the 26-week endpoint is analyzed using a Bayesian dose-response model. Analyses are performed on the intention to treat population (mITT) analysis set. Supportive analysis of the primary efficacy outcome for the mITT dataset are the model for post-baseline measures (MMRM) with body mass index (BMI) (<30 kg/m^2, ≥30 kg/m^2), metformin use, treatment, visit, and treatment-by-visit interaction as fixed effects, baseline HbA1c as a covariate, and patient as a random effect. The mean weight change from baseline at 12 and 26 weeks, along with the mean change from baseline of HbA1c at 12 weeks, is analyzed using similar dose-response models as the primary analyses. The percentages of patients with ≥5% or ≥10% body weight loss, reaching the HbA1c target of ≤6.5% or ≤7.0% at 26 weeks, or requiring rescue therapy are analyzed using logistic regression with fixed effects of treatment and strata, and baseline as a covariate. The changes from baseline in FBG (fasting blood glucose), SMBG (self-monitored blood glucose) levels, waist circumference, and mean percentage change in lipids from baseline to 12 and 26 weeks are analyzed using a similar MMRM to the one used for the primary analyses. Table Abbreviations: Dula 1.5 mg=dulaglutide 1.5 mg once weekly; LY means tirzepatide, and LY 1 mg=tirzepatide 1 mg once weekly; LY 5 mg=5 mg once weekly; LY 10 mg=escalation dose group tirzepatide once weekly with highest dose of 10 mg; LY 15 mg=escalation dose group of tirzepatide once weekly with highest dose 15 mg; LOCF=last observation-carried-forward; N=number of patients; pbo=placebo; Week 26=mITT on-treatment data at Week 26 excluding data after study drug discontinuation or rescue drug initiation; mITT=modified intent-to-treat; SD=standard deviation. For Table 4, n=number of patients in the population with baseline and post-baseline value at the specified time point. For Table 6, LY10 mg=escalation dose group tirzepatide, once weekly with highest dose of 10 mg; escalation dose: (5 mg weeks 0 and 1), LY15 mg=escalation dose group tirzepatide, once weekly with highest dose of 15 mg; escalation dose: (5 mg weeks 0 and 1; 10 mg weeks 2 to 5); N=number of patients in specified group, m=number of patients who experienced new event during interval, FolUp=follow up, T/Wk=Time range, (week) and %=means percent patients spending at least some time in treatment group who experienced new event during interval. For Table 7, n is the number of patients with events meeting the criteria; N is number of patients in the population; % is percent of patients in treatment group experiencing the event.

[1] = LY10 mg (tirzepatide 5 mg weeks 0 and 1, then 10 mg once weekly), N = 51, Fol Up (follow up)
[2] = LY10 mg (tirzepatide 5 mg weeks 0 and 1, then 10 mg once weekly), N = 51, T/Wk 0
[3] = LY10 mg (tirzepatide 5 mg weeks 0 and 1, then 10 mg once weekly), N = 51, T/Wk 1
[4] = LY10 mg (tirzepatide 5 mg weeks 0 and 1, then 10 mg once weekly), N = 51, T/Wk 2
[5] = LY10 mg (tirzepatide 5 mg weeks 0 and 1, then 10 mg once weekly), N = 51, T/Wk 3
[6] = LY10 mg (tirzepatide 5 mg weeks 0 and 1, then 10 mg once weekly), N = 51, T/Wk 4
[7] = LY10 mg (tirzepatide 5 mg weeks 0 and 1, then 10 mg once weekly), N = 51, T/Wk 5
[8] = LY10 mg (tirzepatide 5 mg weeks 0 and 1, then 10 mg once weekly), N = 51, T/Wk 6
[9] = LY10 mg (tirzepatide 5 mg weeks 0 and 1, then 10 mg once weekly), N = 51, T/Wk 7
[10] = LY10 mg (tirzepatide 5 mg weeks 0 and 1, then 10 mg once weekly), N = 51, T/Wk 8
[11] = LY10 mg (tirzepatide 5 mg weeks 0 and 1, then 10 mg once weekly), N = 51, T/Wk 9
[12] = LY10 mg (tirzepatide 5 mg weeks 0 and 1, then 10 mg once weekly), N = 51, T/Wk 10
[13] = LY10 mg (tirzepatide 5 mg weeks 0 and 1, then 10 mg once weekly), N = 51, T/Wk 11
[14] = LY10 mg (tirzepatide 5 mg weeks 0 and 1, then 10 mg once weekly), N = 51, T/Wk 12
[15] = LY10 mg (tirzepatide 5 mg weeks 0 and 1, then 10 mg once weekly), N = 51, T/Wk >12 < 16
[16] = LY10 mg (tirzepatide 5 mg weeks 0 and 1, then 10 mg once weekly), N = 51, T/Wk >16 ≤ 20
[17] = LY10 mg (tirzepatide 5 mg weeks 0 and 1, then 10 mg once weekly), N = 51, T/Wk >20
[18] = LY15 mg (tirzepatide 5 mg weeks 0 and 1; 10 mg weeks 2 to 5; then 15 mg once weekly), N = 53, Fol Up (follow up)
[19] = LY15 mg (tirzepatide 5 mg weeks 0 and 1; 10 mg weeks 2 to 5; then 15 mg once weekly), N = 53, T/Wk 0
[20] = LY15 mg (tirzepatide 5 mg weeks 0 and 1; 10 mg weeks 2 to 5; then 15 mg once weekly), N = 53, T/Wk 1
[21] = LY15 mg (tirzepatide 5 mg weeks 0 and 1; 10 mg weeks 2 to 5; then 15 mg once weekly), N = 53, T/Wk 2
[22] = LY15 mg (tirzepatide 5 mg weeks 0 and 1; 10 mg weeks 2 to 5; then 15 mg once weekly), N = 53, T/Wk 3
[23] = LY15 mg (tirzepatide 5 mg weeks 0 and 1; 10 mg weeks 2 to 5; then 15 mg once weekly), N = 53, T/Wk 4
[24] = LY15 mg (tirzepatide 5 mg weeks 0 and 1; 10 mg weeks 2 to 5; then 15 mg once weekly), N = 53, T/Wk 5
[25] = LY15 mg (tirzepatide 5 mg weeks 0 and 1; 10 mg weeks 2 to 5; then 15 mg once weekly), N = 53, T/Wk 6
[26] = LY15 mg (tirzepatide 5 mg weeks 0 and 1; 10 mg weeks 2 to 5; then 15 mg once weekly), N = 53, T/Wk 7
[27] = LY15 mg (tirzepatide 5 mg weeks 0 and 1; 10 mg weeks 2 to 5; then 15 mg once weekly), N = 53, T/Wk 8
[28] = LY15 mg (tirzepatide 5 mg weeks 0 and 1; 10 mg weeks 2 to 5; then 15 mg once weekly), N = 53, T/Wk 9
[29] = LY15 mg (tirzepatide 5 mg weeks 0 and 1; 10 mg weeks 2 to 5; then 15 mg once weekly), N = 53, T/Wk 10
[30] = LY15 mg (tirzepatide 5 mg weeks 0 and 1; 10 mg weeks 2 to 5; then 15 mg once weekly), N = 53, T/Wk 11
[31] = LY15 mg (tirzepatide 5 mg weeks 0 and 1; 10 mg weeks 2 to 5; then 15 mg once weekly), N = 53, T/Wk 12
[32] = LY15 mg (tirzepatide 5 mg weeks 0 and 1; 10 mg weeks 2 to 5; then 15 mg once weekly), N = 53, T/Wk >12 < 16
[33] = LY15 mg (tirzepatide 5 mg weeks 0 and 1; 10 mg weeks 2 to 5; then 15 mg once weekly), N = 53, T/Wk >16 ≤ 20
[34] = LY15 mg (tirzepatide 5 mg weeks 0 and 1; 10 mg weeks 2 to 5; then 15 mg once weekly), N = 53, T/Wk >20

tirzepatide [LY]
32.1%: Nausea Vomiting and Diarrhea: % patients who experienced new event during interval [19]
6: Nausea Vomiting and Diarrhea: m, number of patients who experienced new event during interval [22]
10: Nausea Vomiting and Diarrhea: m, number of patients who experienced new event during interval [20]
0: Nausea Vomiting and Diarrhea: m, number of patients who experienced new event during interval [18] | Nausea Vomiting and Diarrhea: m, number of patients who experienced new event during interval [28] | Nausea Vomiting and Diarrhea: m, number of patients who experienced new event during interval [29]
0.0%: Nausea Vomiting and Diarrhea: % patients who experienced new event during interval [18] | Nausea Vomiting and Diarrhea: % patients who experienced new event during interval [28] | Nausea Vomiting and Diarrhea: % patients who experienced new event during interval [29]
5.8%: Nausea Vomiting and Diarrhea: % patients who experienced new event during interval [21]
4.0%: Nausea Vomiting and Diarrhea: % patients who experienced new event during interval [7] | Nausea Vomiting and Diarrhea: % patients who experienced new event during interval [27]
5.9%: Nausea Vomiting and Diarrhea: % patients who experienced new event during interval [23] | Nausea Vomiting and Diarrhea: % patients who experienced new event during interval [26]
2: Nausea Vomiting and Diarrhea: m, number of patients who experienced new event during interval [3] | Nausea Vomiting and Diarrhea: m, number of patients who experienced new event during interval [4] | Nausea Vomiting and Diarrhea: m, number of patients who experienced new event during interval [7] | Nausea Vomiting and Diarrhea: m, number of patients who experienced new event during interval [9] | Nausea Vomiting and Diarrhea: m, number of patients who experienced new event during interval [11] | Nausea Vomiting and Diarrhea: m, number of patients who experienced new event during interval [25] | Nausea Vomiting and Diarrhea: m, number of patients who experienced new event during interval [27]
9: Nausea Vomiting and Diarrhea: m, number of patients who experienced new event during interval [2]
4.1%: Nausea Vomiting and Diarrhea: % patients who experienced new event during interval [9] | Nausea Vomiting and Diarrhea: % patients who experienced new event during interval [11]
18.9%: Nausea Vomiting and Diarrhea: % patients who experienced new event during interval [20]
2.1%: Nausea Vomiting and Diarrhea: % patients who experienced new event during interval [1] | Nausea Vomiting and Diarrhea: % patients who experienced new event during interval [16] | Nausea Vomiting and Diarrhea: % patients who experienced new event during interval [17] | Nausea Vomiting and Diarrhea: % patients who experienced new event during interval [31] | Nausea Vomiting and Diarrhea: % patients who experienced new event during interval [32] | Nausea Vomiting and Diarrhea: % patients who experienced new event during interval [33] | Nausea Vomiting and Diarrhea: % patients who experienced new event during interval [34]
3.9%: Nausea Vomiting and Diarrhea: % patients who experienced new event during interval [3] | Nausea Vomiting and Diarrhea: % patients who experienced new event during interval [4] | Nausea Vomiting and Diarrhea: % patients who experienced new event during interval [25]
17: Nausea Vomiting and Diarrhea: m, number of patients who experienced new event during interval [19]
11.4%: Nausea Vomiting and Diarrhea: % patients who experienced new event during interval [22]
2.0%: Nausea Vomiting and Diarrhea: % patients who experienced new event during interval [5] | Nausea Vomiting and Diarrhea: % patients who experienced new event during interval [8] | Nausea Vomiting and Diarrhea: % patients who experienced new event during interval [10] | Nausea Vomiting and Diarrhea: % patients who experienced new event during interval [14] | Nausea Vomiting and Diarrhea: % patients who experienced new event during interval [15] | Nausea Vomiting and Diarrhea: % patients who experienced new event during interval [24] | Nausea Vomiting and Diarrhea: % patients who experienced new event during interval [30]
3: Nausea Vomiting and Diarrhea: m, number of patients who experienced new event during interval [6] | Nausea Vomiting and Diarrhea: m, number of patients who experienced new event during interval [21] | Nausea Vomiting and Diarrhea: m, number of patients who experienced new event during interval [23] | Nausea Vomiting and Diarrhea: m, number of patients who experienced new event during interval [26]
m = 0; 0%: Nausea Vomiting and Diarrhea: % patients who experienced new event during interval [12] | Nausea Vomiting and Diarrhea: m, number of patients who experienced new event during interval [12] | Nausea Vomiting and Diarrhea: % patients who experienced new event during interval [13] | Nausea Vomiting and Diarrhea: m, number of patients who experienced new event during interval [13]
20%: Nausea Vomiting and Diarrhea: % patients who experienced new event during interval [2]
6.0%: Nausea Vomiting and Diarrhea: % patients who experienced new event during interval [6]
1: Nausea Vomiting and Diarrhea: m, number of patients who experienced new event during interval [1] | Nausea Vomiting and Diarrhea: m, number of patients who experienced new event during interval [5] | Nausea Vomiting and Diarrhea: m, number of patients who experienced new event during interval [8] | Nausea Vomiting and Diarrhea: m, number of patients who experienced new event during interval [10] | Nausea Vomiting and Diarrhea: m, number of patients who experienced new event during interval [14] | Nausea Vomiting and Diarrhea: m, number of patients who experienced new event during interval [15] | Nausea Vomiting and Diarrhea: m, number of patients who experienced new event during interval [16] | Nausea Vomiting and Diarrhea: m, number of patients who experienced new event during interval [17] | Nausea Vomiting and Diarrhea: m, number of patients who experienced new event during interval [24] | Nausea Vomiting and Diarrhea: m, number of patients who experienced new event during interval [30] | Nausea Vomiting and Diarrhea: m, number of patients who experienced new event during interval [31] | Nausea Vomiting and Diarrhea: m, number of patients who experienced new event during interval [32] | Nausea Vomiting and Diarrhea: m, number of patients who experienced new event during interval [33] | Nausea Vomiting and Diarrhea: m, number of patients who experienced new event during interval [34]
